Like-named read-outs stand apart in the source and are kept apart here.

B1: GST-tagged Nup153 (895–1475) (domain or fragment, UniProt P49790 895-1475, looked up)
chain: SNSAASSSFKFGVSSSSSGPSQTLTSTGNFKFGDQGGFKIGVSSDSGSINPMSEGFKFSKPIGDFKFGVSSESKPEEVKKDSKNDNFKFGLSSGLSNPVSLTPFQFGVSNLGQEEKKEELPKSSSAGFSFGTGVINSTPAPANTIVTSENKSSFNLGTIETKSASVAPFTCKTSEAKKEEMPATKGGFSFGNVEPASLPSASVFVLGRTEEKQQEPVTSTSLVFGKKADNEEPKCQPVFSFGNSEQTKDENSSKSTFSFSMTKPSEKESEQPAKATFAFGAQTSTTADQGAAKPVFSFLNNSSSSSSTPATSAGGGIFGSSTSSSNPPVATFVFGQSSNPVSSSAFGNTAESSTSQSLLFSQDSKLATTSSTGTAVTPFVFGPGASSNNTTTSGFGFGATTTSSSAGSSFVFGTGPSAPSASPAFGANQTPTFGQSQGASQPNPPGFGSISSSTALFPTGSQPAPPTFGTVSSSSQPPVFGQQPSQSAFGSGTTPNSSSAFQFGSSTTNFNFTNNSPSGVFTFGANSSTPAASAQPSGSGGFPFNQSPAAFTVGSNGKNVFSSSGTSFSGRKIKTAVRRRK

Assay in all cases: ELISA
Test [1] deals with T1, wild-type importin β (human, UniProt Q14974 1-876).
Test [2] deals with T2, importin β I178A/F217A/Y255A/I263R (m-N) (human, UniProt Q14974 1-876, I178A | F217A | Y255A | I263R).
The target of test [3] is importin β L612D/F688A (m-C) (human, UniProt Q14974 1-876, L612D | F688A).
Test [4] has as its target importin β F217A (human, UniProt Q14974 1-876, F217A).
Test [5] has as its target importin β I178D/Y255A (human, UniProt Q14974 1-876, I178D | Y255A).
The target in test [6] is importin β Y255A (human, UniProt Q14974 1-876, Y255A).
The target in test [7] is importin β E214A (human, UniProt Q14974 1-876, E214A).
Test [8] addresses importin β I178A/E214A (human, UniProt Q14974 1-876, I178A | E214A).
Test [9] has as its target T1, wild-type importin β. This is another data set of the same source.
Test [10] has as its target T2, importin β I178A/F217A/Y255A/I263R (m-N). This is another data set of the same source.
In test [11] the target is importin β F217A/Y255A (human, UniProt Q14974 1-876, F217A | Y255A).
Test [12] has as its target importin β I178D (human, UniProt Q14974 1-876, I178D).
The target of test [13] is importin β I178A (human, UniProt Q14974 1-876, I178A).
The target in test [14] is importin β I263R (human, UniProt Q14974 1-876, I263R).
Test [15] addresses GST–RanGTP (UniProt P62826 1-216).
In test [16] the target is B1.

Consider B1, for which the Kd – broadly, the free concentration of one partner at which half of the binding sites on the other are occupied at equilibrium, for simple one-to-one binding – in test [1] turned out to be 1 ± 0.1 nM; in [2], 91.3 ± 11.8 nM; in test [3], 1.2 ± 0.1 nM; in test [4], 2.1 ± 0.2 nM; in test [5], 68.3 ± 9 nM; in test [6], 3.5 ± 0.3 nM. The Kd stood at 1.8 ± 0.1 nM in test [7]; 27 ± 4.1 nM in test [8]; 1.1 ± 0.1 nM in test [9]; 99 ± 15.2 nM in test [10]; 32.4 ± 5.3 nM in test [11]; 40.1 ± 9.1 nM in test [12]. Besides, the dissociation constant Kd turned out to be 1.1 ± 0.1 nM in [13] and 2.5 ± 0.3 nM in [14].

B2: importin β m-N/m-C (natural protein)
chain: MELITILEKTVSPDRLELEAAQKFLERAAVENLPTFLVELSRVLANPGNSQVARVAAGLQIKNSLTSKDPDIKAQYQQRWLAIDANARREVKNYVLQTLGTETYRPSSASQCVAGIACAEIPVNQWPELIPQLVANVTNPNSTEHMKESTLEAIGYICQDIDPEQLQDKSNEILTAIAQGMRKEEPSNNVKLAATNALLNSLEFTKANFDKESERHAIMQVVCEATQCPDTRVRVAALQNLVKIMSLYYQYMETAMGPALFARTIEAMKSDIDEVALQGIEFWSNVCDEEMDLAIEASEAAEQGRPPEHTSKFYAKGALQYLVPILTQTLTKQDENDDDDDWNPCKAAGVCLMLLATCCEDDIVPHVLPFIKEHIKNPDWRYRDAAVMAFGCILEGPEPSQLKPLVIQAMPTLIELMKDPSVVVRDTAAWTVGRICELLPEAAINDVYLAPLLQCLIEGLSAEPRVASNVCWAFSSLAEAAYEAADVADDQEEPATYCLSSSFELIVQKLLETTDRPDGHQNNLRSSAYESLMEIVKNSAKDCYPAVQKTTLVIMERLQQVLQMESHIQSTSDRIQFNDLQSLLCATLQNVLRKVQHQDALQISDVVMASLDRMFQSTAGSGGVQEDALMAVSTLVEVLGGEFLKYMEAFKPFLGIGLKNYAEYQVCLAAVGLVGDLCRALQSNIIPACDEVMQLLLENLGNENVHRSVKPQILSVFGDIALAIGGEFKKYLEVVLNTLQQASQAQVDKSDYDMVDYLNELRESCLEAYTGIVQGLKGDQENVHPDVMLVQPRVEFILSFIDHIAGDEDHTDGVVACAAGLIGDLCTAFGKDVLKLVEARPMIHELLTEGRRSKTNKAKTLATWATKELRKLKNQA
For the molecule B2, the Kd in test [15] came to 4.4 nM.

B3: importin β (304–876) F688A (domain or fragment, human, UniProt Q14974 304-876, looked up)
chain: GRPPEHTSKFYAKGALQYLVPILTQTLTKQDENDDDDDWNPCKAAGVCLMLLATCCEDDIVPHVLPFIKEHIKNPDWRYRDAAVMAFGCILEGPEPSQLKPLVIQAMPTLIELMKDPSVVVRDTAAWTVGRICELLPEAAINDVYLAPLLQCLIEGLSAEPRVASNVCWAFSSLAEAAYEAADVADDQEEPATYCLSSSFELIVQKLLETTDRPDGHQNNLRSSAYESLMEIVKNSAKDCYPAVQKTTLVIMERLQQVLQMESHIQSTSDRIQFNDLQSLLCATLQNVLRKVQHQDALQISDVVMASLLRMFQSTAGSGGVQEDALMAVSTLVEVLGGEFLKYMEAFKPFLGIGLKNYAEYQVCLAAVGLVGDLCRALQSNIIPACDEVMQLLLENLGNENVHRSVKPQILSVFGDIALAIGGEFKKYLEVVLNTLQQASQAQVDKSDYDMVDYLNELRESCLEAYTGIVQGLKGDQENVHPDVMLVQPRVEFILSFIDHIAGDEDHTDGVVACAAGLIGDLCTAFGKDVLKLVEARPMIHELLTEGRRSKTNKAKTLATWATKELRKLKNQA
On to B3, for which the “fold decrease in affinity against importin β (304–876)” value in test [16] was roughly 2 fold.

(Values after paper PMC2172684 (The Journal of Cell Biology, 2003).)
